Laboratory results published in patent US20170143843A1 (Genentech, published 2017).

Key:
[1] = biological target: T1, human factor D (human, UniProt P00746 26-253); experiment: SPR Biacore T200, Fab captured by anti-huFab, human fD injected, 25 C
T1 construct: also called fD
Protocol: Antibody Fab fragments were immobilized on a Series S CM5 sensor chip using the anti-huFab capture kit (GE healthcare Cat. #28-9583-25) following a protocol described by the manufacturer. Kinetics of binding were calculated from sensorgrams recorded for injection of 60 μL aliquots of solutions of human factor D varied in concentration from 0.39 nM to 25 nM in 2-fold increments. The flow rate was 30 μL/minute, the running buffer was HBS-P+, the temperature of analysis was 25° C., real-time reference cell subtraction was employed, and dissociation following factor D injection was followed for 10 minutes. After subtraction of the sensorgram observed for injection of running buffer, data were analyzed according to a 1:1 model using BiaEval software v4.1 (GE Healthcare) to extract the kinetics and affinity constants.

[2] = biological target: T1, human factor D; experiment: cell-based or functional assay
[3] = biological target: T1, human factor D; experiment: cell-based or functional assay; remark: listed apart in the source
[4] = biological target: T1, human factor D; experiment: cell-based or functional assay; remark: listed apart in the source
[5] = biological target: T1, human factor D; experiment: SPR total binding to fD over time; Fab 100 mg/mL in PBS, 37 C, 10 weeks (FIG. 2B)
[6] = biological target: T1, human factor D; experiment: SPR total binding to fD over time; Fab 10 mg/mL in pH 5.5 buffer (FIG. 2A), one month

T1 sequence (P00746 26-253 limits assumed): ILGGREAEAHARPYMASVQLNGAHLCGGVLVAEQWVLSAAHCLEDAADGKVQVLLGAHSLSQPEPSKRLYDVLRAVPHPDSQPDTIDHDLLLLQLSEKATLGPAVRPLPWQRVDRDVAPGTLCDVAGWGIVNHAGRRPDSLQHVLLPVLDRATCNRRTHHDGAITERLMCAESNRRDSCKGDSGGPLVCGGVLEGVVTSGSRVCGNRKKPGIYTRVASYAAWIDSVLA

Binder	Kd [1] [nM]	also measured
AFD.v14.C (Cys-modified AFD.v14 variant, Fab-C) (Fab, V domains shown) VH: EVQLVQSGPELKKPGASVKVSCKASGYTFTNYGMNWVRQAPGQGLEWMGWINTYTGETTYAEDFKGRFVFSLDTSVSTAYLQISSLKAEDTAVYYCEREGGVSNWGQGTLVTVSS VL: DIQVTQSPSSLSASVGDRVTITCITSTSIESDMNWYQQKPGKVPKLLISGGNTLRPGVPSRFSGSGSGTDFTLTISSLQPEDVATYYCLQSDSLPYTFGQGTKVEIKR	–	Average IC50 fB Activation (pM), TR-FRET, 125 pM fD [2]: 72 pM
AFD.v4 (VL-D32S) (Fab, V domains shown, Fab variant of aFD.WT) VH: EVQLVQSGPELKKPGASVKVSCKASGYTFTNYGMNWVRQAPGQGLEWMGWINTYTGETTYADDFKGRFVFSLDTSVSTAYLQISSLKAEDTAVYYCEREGGVNNWGQGTLVTVSS VL: DIQVTQSPSSLSASVGDRVTITCITSTDIDDSMNWYQQKPGKVPKLLISGGNTLRPGVPSRFSGSGSGTDFTLTISSLQPEDVATYYCLQSDSLPYTFGQGTKVEIKR	0.026	–
AFD.v13 (SIESD.N103Q; VL-D28S:D30E:D31S VH-D62E VH-N103Q) (Fab, V domains shown, Fab variant of aFD.WT) VH: EVQLVQSGPELKKPGASVKVSCKASGYTFTNYGMNWVRQAPGQGLEWMGWINTYTGETTYAEDFKGRFVFSLDTSVSTAYLQISSLKAEDTAVYYCEREGGVQNWGQGTLVTVSS VL: DIQVTQSPSSLSASVGDRVTITCITSTSIESDMNWYQQKPGKVPKLLISGGNTLRPGVPSRFSGSGSGTDFTLTISSLQPEDVATYYCLQSDSLPYTFGQGTKVEIKR	0.06	–
AFD.v12 (SIESD.N103D; VL-D28S:D30E:D31S VH-D62E VH-N103D) (Fab, V domains shown, Fab variant of aFD.WT) VH: EVQLVQSGPELKKPGASVKVSCKASGYTFTNYGMNWVRQAPGQGLEWMGWINTYTGETTYAEDFKGRFVFSLDTSVSTAYLQISSLKAEDTAVYYCEREGGVDNWGQGTLVTVSS VL: DIQVTQSPSSLSASVGDRVTITCITSTSIESDMNWYQQKPGKVPKLLISGGNTLRPGVPSRFSGSGSGTDFTLTISSLQPEDVATYYCLQSDSLPYTFGQGTKVEIKR	0.023	–

More lines, main results first:

Kd [1] [nM]	Binder	also measured
≤ 0.01	AFD.v1 (VL-D28S) (Fab, V domains shown, Fab variant of aFD.WT) VH: EVQLVQSGPELKKPGASVKVSCKASGYTFTNYGMNWVRQAPGQGLEWMGWINTYTGETTYADDFKGRFVFSLDTSVSTAYLQISSLKAEDTAVYYCEREGGVNNWGQGTLVTVSS VL: DIQVTQSPSSLSASVGDRVTITCITSTSIDDDMNWYQQKPGKVPKLLISGGNTLRPGVPSRFSGSGSGTDFTLTISSLQPEDVATYYCLQSDSLPYTFGQGTKVEIKR	–
0.0167	AFD.v8 (SIESD; VL-D28S:D30E:D31S VH-D62E) (Fab, V domains shown, Fab; also called SIESD (AFD.v8)) VH: EVQLVQSGPELKKPGASVKVSCKASGYTFTNYGMNWVRQAPGQGLEWMGWINTYTGETTYAEDFKGRFVFSLDTSVSTAYLQISSLKAEDTAVYYCEREGGVNNWGQGTLVTVSS VL: DIQVTQSPSSLSASVGDRVTITCITSTSIESDMNWYQQKPGKVPKLLISGGNTLRPGVPSRFSGSGSGTDFTLTISSLQPEDVATYYCLQSDSLPYTFGQGTKVEIKR	IC50 (nM) AP Hemolysis (rabbit erythrocytes, C1q-depleted human serum) [3]: 4.2 nM; Average IC50 fB Activation (pM), TR-FRET, 50 pM fD [4]: 27.6 pM
≤ 0.01	AFD.v3 (VL-D31S) (Fab, V domains shown, Fab variant of aFD.WT) VH: EVQLVQSGPELKKPGASVKVSCKASGYTFTNYGMNWVRQAPGQGLEWMGWINTYTGETTYADDFKGRFVFSLDTSVSTAYLQISSLKAEDTAVYYCEREGGVNNWGQGTLVTVSS VL: DIQVTQSPSSLSASVGDRVTITCITSTDIDSDMNWYQQKPGKVPKLLISGGNTLRPGVPSRFSGSGSGTDFTLTISSLQPEDVATYYCLQSDSLPYTFGQGTKVEIKR	–
≤ 0.01	AFD.v2 (VL-D30E) (Fab, V domains shown, Fab variant of aFD.WT; also called D30E (AFD.v2)) VH: EVQLVQSGPELKKPGASVKVSCKASGYTFTNYGMNWVRQAPGQGLEWMGWINTYTGETTYADDFKGRFVFSLDTSVSTAYLQISSLKAEDTAVYYCEREGGVNNWGQGTLVTVSS VL: DIQVTQSPSSLSASVGDRVTITCITSTDIEDDMNWYQQKPGKVPKLLISGGNTLRPGVPSRFSGSGSGTDFTLTISSLQPEDVATYYCLQSDSLPYTFGQGTKVEIKR	loss in binding [5]: ~20%; loss in binding [6]: ~40%
